Assays:
Test in all cases: cell-based or functional assay
[1] = target: FVIIa variant CB615 D196F/K197E (human) (UniProt P08709)
[2] = target: FVIIa variant CB601 D196Y (human) (UniProt P08709)
[3] = target: FVIIa variant CB734 K341M (human) (UniProt P08709)
[4] = target: FVIIa variant CB592 M298Q (human) (UniProt P08709)
[5] = target: FVIIa variant CB637 K197E/K341Q (human) (UniProt P08709)
[6] = target: FVIIa variant CB670 G237V/K341Q (human) (UniProt P08709)
[7] = target: FVIIa variant CB594 V158D/E296V/M298Q/K337A (human) (UniProt P08709)
[8] = target: FVIIa variant CB555 D196R (human) (UniProt P08709)
[9] = target: FVIIa variant CB700 R290M (human) (UniProt P08709)
[10] = target: FVIIa variant CB588 D196R/K197E/K199E/R290E (human) (UniProt P08709)
[11] = target: FVIIa variant CB593 V158D/E296V/M298Q (human) (UniProt P08709)
[12] = target: FVIIa variant CB598 K197W (human) (UniProt P08709)
[13] = target: FVIIa variant CB554 D196K (human) (UniProt P08709)
[14] = target: FVIIa variant CB600 D196F (human) (UniProt P08709)
[15] = target: FVIIa variant CB605 G237W (human) (UniProt P08709)
[16] = target: FVIIa variant CB608 G237V (human) (UniProt P08709)
[17] = target: FVIIa variant CB589 D196R/K197M/K199E (human) (UniProt P08709)
[18] = target: FVIIa variant CB587 D196K/K197E/K199E (human) (UniProt P08709)
[19] = target: FVIIa variant CB693 K197E/K199E/G237V/M298Q/K341Q (human) (UniProt P08709)
[20] = target: FVIIa variant CB701 R290V (human) (UniProt P08709)
[21] = target: FVIIa variant CB691 K197E/K199E/K341Q (human) (UniProt P08709)
[22] = target: FVIIa variant CB556 D196A (human) (UniProt P08709)
[23] = target: FVIIa variant CB606 G237T (human) (UniProt P08709)
[24] = target: FVIIa variant CB596 K197V (human) (UniProt P08709)
[25] = target: FVIIa variant CB694 K199E/K341Q (human) (UniProt P08709)
[26] = target: FVIIa variant CB692 K197E/G237V/M298Q/K341Q (human) (UniProt P08709)
[27] = target: FVIIa variant CB609 K341Q (human) (UniProt P08709)
[28] = target: FVIIa variant CB580 D196K/R290E (human) (UniProt P08709)
[29] = target: FVIIa variant CB735 K341D (human) (UniProt P08709)
[30] = target: FVIIa variant CB595 K197I (human) (UniProt P08709)
[31] = target: FVIIa variant CB565 T239A (human) (UniProt P08709)

Q: “Human Recombinant TFPI (R&D Systems) (from UniProt P10646 29-282)” was tested. Which TFPI fold resistance (fold vs wild-type FVIIa) [1] did it give?
A: The TFPI fold resistance (fold vs wild-type FVIIa) was < 0.3.

Q: What about the TFPI fold resistance (fold vs wild-type FVIIa) [2] of the same substance?
A: Its TFPI fold resistance (fold vs wild-type FVIIa) is < 0.3.

Q: And the TFPI fold resistance (fold vs wild-type FVIIa) [3]?
A: Its TFPI fold resistance (fold vs wild-type FVIIa) is 4.4.

Q: And the IC50 of TFPI inhibition of FVIIa/TF [4]?
A: Its IC50 of TFPI inhibition of FVIIa/TF is 35 nM.

Q: And the TFPI fold resistance (fold vs wild-type FVIIa) [4]?
A: Its TFPI fold resistance (fold vs wild-type FVIIa) is 0.5.

Q: And the pIC50 of TFPI inhibition of FVIIa/TF [4]?
A: Its pIC50 of TFPI inhibition of FVIIa/TF is 7.5.

Q: And the TFPI fold resistance (fold vs wild-type FVIIa) [5]?
A: Its TFPI fold resistance (fold vs wild-type FVIIa) is 80.7.

Q: What about the TFPI fold resistance (fold vs wild-type FVIIa) [6] of the same substance?
A: The TFPI fold resistance (fold vs wild-type FVIIa) was 14.1.

Q: And the IC50 of TFPI inhibition of FVIIa/TF [7]?
A: The IC50 of TFPI inhibition of FVIIa/TF was 22 nM.

Q: What about the TFPI fold resistance (fold vs wild-type FVIIa) [7] of the same substance?
A: Its TFPI fold resistance (fold vs wild-type FVIIa) is 0.3.

Q: And the pIC50 of TFPI inhibition of FVIIa/TF [7]?
A: The pIC50 of TFPI inhibition of FVIIa/TF was 7.7.

Q: And the IC50 of TFPI inhibition of FVIIa/TF [8]?
A: The IC50 of TFPI inhibition of FVIIa/TF was 37 nM.

Q: What about the TFPI fold resistance (fold vs wild-type FVIIa) [8] of the same substance?
A: Its TFPI fold resistance (fold vs wild-type FVIIa) is 0.5.

Q: What about the pIC50 of TFPI inhibition of FVIIa/TF [8] of the same substance?
A: The pIC50 of TFPI inhibition of FVIIa/TF was 7.4.

Q: What about the TFPI fold resistance (fold vs wild-type FVIIa) [9] of the same substance?
A: The TFPI fold resistance (fold vs wild-type FVIIa) was 1.

Q: What about the IC50 of TFPI inhibition of FVIIa/TF [10] of the same substance?
A: The IC50 of TFPI inhibition of FVIIa/TF was 28 nM.

Q: And the TFPI fold resistance (fold vs wild-type FVIIa) [10]?
A: The TFPI fold resistance (fold vs wild-type FVIIa) was 0.4.

Q: What about the pIC50 of TFPI inhibition of FVIIa/TF [10] of the same substance?
A: Its pIC50 of TFPI inhibition of FVIIa/TF is 7.6.

Q: What about the IC50 of TFPI inhibition of FVIIa/TF [11] of the same substance?
A: The IC50 of TFPI inhibition of FVIIa/TF was 41 nM.

Q: And the TFPI fold resistance (fold vs wild-type FVIIa) [11]?
A: Its TFPI fold resistance (fold vs wild-type FVIIa) is 0.8.

Q: And the pIC50 of TFPI inhibition of FVIIa/TF [11]?
A: Its pIC50 of TFPI inhibition of FVIIa/TF is 7.4.

Q: And the TFPI fold resistance (fold vs wild-type FVIIa) [12]?
A: The TFPI fold resistance (fold vs wild-type FVIIa) was < 0.3.

Q: What about the IC50 of TFPI inhibition of FVIIa/TF [13] of the same substance?
A: Its IC50 of TFPI inhibition of FVIIa/TF is 45 nM.

Q: What about the TFPI fold resistance (fold vs wild-type FVIIa) [13] of the same substance?
A: Its TFPI fold resistance (fold vs wild-type FVIIa) is 0.6.

Q: What about the pIC50 of TFPI inhibition of FVIIa/TF [13] of the same substance?
A: The pIC50 of TFPI inhibition of FVIIa/TF was 7.4.

Q: What about the TFPI fold resistance (fold vs wild-type FVIIa) [14] of the same substance?
A: The TFPI fold resistance (fold vs wild-type FVIIa) was < 0.3.

Q: What about the TFPI fold resistance (fold vs wild-type FVIIa) [15] of the same substance?
A: The TFPI fold resistance (fold vs wild-type FVIIa) was < 0.3.

Q: What about the TFPI fold resistance (fold vs wild-type FVIIa) [16] of the same substance?
A: Its TFPI fold resistance (fold vs wild-type FVIIa) is 0.8.

Q: And the IC50 of TFPI inhibition of FVIIa/TF [17]?
A: The IC50 of TFPI inhibition of FVIIa/TF was 44 nM.

Q: What about the TFPI fold resistance (fold vs wild-type FVIIa) [17] of the same substance?
A: Its TFPI fold resistance (fold vs wild-type FVIIa) is 0.6.

Q: And the pIC50 of TFPI inhibition of FVIIa/TF [17]?
A: The pIC50 of TFPI inhibition of FVIIa/TF was 7.4.

Q: What about the IC50 of TFPI inhibition of FVIIa/TF [18] of the same substance?
A: The IC50 of TFPI inhibition of FVIIa/TF was 20 nM.

Q: What about the TFPI fold resistance (fold vs wild-type FVIIa) [18] of the same substance?
A: The TFPI fold resistance (fold vs wild-type FVIIa) was 0.3.

Q: What about the pIC50 of TFPI inhibition of FVIIa/TF [18] of the same substance?
A: The pIC50 of TFPI inhibition of FVIIa/TF was 7.7.

Q: What about the TFPI fold resistance (fold vs wild-type FVIIa) [19] of the same substance?
A: The TFPI fold resistance (fold vs wild-type FVIIa) was 22.1.

Q: And the TFPI fold resistance (fold vs wild-type FVIIa) [20]?
A: Its TFPI fold resistance (fold vs wild-type FVIIa) is 2.5.

Q: What about the TFPI fold resistance (fold vs wild-type FVIIa) [21] of the same substance?
A: Its TFPI fold resistance (fold vs wild-type FVIIa) is 34.3.

Q: And the IC50 of TFPI inhibition of FVIIa/TF [22]?
A: The IC50 of TFPI inhibition of FVIIa/TF was 5 nM.

Q: And the TFPI fold resistance (fold vs wild-type FVIIa) [22]?
A: The TFPI fold resistance (fold vs wild-type FVIIa) was < 0.3.

Q: And the pIC50 of TFPI inhibition of FVIIa/TF [22]?
A: The pIC50 of TFPI inhibition of FVIIa/TF was 8.3.

Q: What about the TFPI fold resistance (fold vs wild-type FVIIa) [23] of the same substance?
A: Its TFPI fold resistance (fold vs wild-type FVIIa) is 0.3.

Q: What about the TFPI fold resistance (fold vs wild-type FVIIa) [24] of the same substance?
A: The TFPI fold resistance (fold vs wild-type FVIIa) was 0.6.

Q: What about the TFPI fold resistance (fold vs wild-type FVIIa) [25] of the same substance?
A: The TFPI fold resistance (fold vs wild-type FVIIa) was 19.1.

Q: And the TFPI fold resistance (fold vs wild-type FVIIa) [26]?
A: Its TFPI fold resistance (fold vs wild-type FVIIa) is 15.2.

Q: What about the TFPI fold resistance (fold vs wild-type FVIIa) [27] of the same substance?
A: Its TFPI fold resistance (fold vs wild-type FVIIa) is 12.2.

Q: And the IC50 of TFPI inhibition of FVIIa/TF [28]?
A: The IC50 of TFPI inhibition of FVIIa/TF was 52 nM.

Q: What about the TFPI fold resistance (fold vs wild-type FVIIa) [28] of the same substance?
A: The TFPI fold resistance (fold vs wild-type FVIIa) was 0.7.

Q: What about the pIC50 of TFPI inhibition of FVIIa/TF [28] of the same substance?
A: The pIC50 of TFPI inhibition of FVIIa/TF was 7.3.

Q: What about the TFPI fold resistance (fold vs wild-type FVIIa) [29] of the same substance?
A: The TFPI fold resistance (fold vs wild-type FVIIa) was 148.

Q: And the TFPI fold resistance (fold vs wild-type FVIIa) [30]?
A: The TFPI fold resistance (fold vs wild-type FVIIa) was 0.8.

Q: And the IC50 of TFPI inhibition of FVIIa/TF [31]?
A: The IC50 of TFPI inhibition of FVIIa/TF was 320 nM.

Q: What about the TFPI fold resistance (fold vs wild-type FVIIa) [31] of the same substance?
A: Its TFPI fold resistance (fold vs wild-type FVIIa) is 4.5.

Q: What about the pIC50 of TFPI inhibition of FVIIa/TF [31] of the same substance?
A: The pIC50 of TFPI inhibition of FVIIa/TF was 6.5.

— patent US20090098103A1
